B1: KLHL14 (parent)
chain: NETGYLSSVECYNLETNEWRYVSS

Variants of: B1
Assay: protein stability index of a GFP-peptide fusion (GPS, HEK-293T) (PSI 1-6); higher = more stable
Settings: c terminus: a fixed tail appended
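Also: lentivirally expressed fusions sorted by FACS into six bins by GFP to DsRed ratio, PSI derived from sequencing read proportions per bin multiplied by bin number.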

Protein stability index, by site and new letter:
Y5: W 2.52, S 4.16, T 4.72, R 3.2, Q 4.24, V 3.8
N13: Y 2.63, E 2.79, C 2.06, K 2.56, M 2.21, G 2.67, I 1.52, S 2.69, P 3.48, Q 2.8, V 1.47, L 1.8, D 3.83, F 1.64, W 1.71, A 2.99, T 3.24, R 2.81, H 2.73
C11: P 3.92, D 4.58, N 4.18, E 3.8, G 3.91, S 3.77, L 2.97, T 3.6, M 3.23, Q 4.11, Y 3.06, I 2.55, F 2.83, R 3.73, W 4.03, V 2.76, H 4.09, K 3.58
L6: G 3.62, K 3.89, Y 2.86, N 3.08, C 3.21, W 4.46, F 2.87, S 3.63, D 3.78, M 3.45, Q 3.69, P 4.19, A 3.63, I 3.24, H 4.23, R 3.82, V 3.39, T 3.97, E 4.29
L14: C 3.2, H 3.74, G 3.49, W 3.11, D 4.15, R 3.73, F 3.38, P 4.16, N 4.24, Y 2.95, E 4.6, I 3.35, A 3.96, M 3.46, V 3.41, K 3.99, Q 3.88, S 4.68, T 3.62
E18: S 2.9, Y 2.57, L 3.02, V 2.62, I 2.68, G 2.36, N 3.49, K 3.48, H 2.94, D 3.72, F 3.41, R 3.68, W 2.15, C 2.55, Q 2.93, T 3.22, A 2.83, M 2.92, P 2.58
S23: F 3.67, G 4.02, D 4.24, I 4.09, K 3.27, A 3.19, C 3.22, E 3.68, H 3.26
W19: V 4.58, T 4.99, Y 4.5, M 4.36, D 4.83, Q 4.31, E 4.97, I 4.75, C 4.26, L 4.37, N 5.05, P 3.66, H 4.77, F 4.71, R 4.92, S 5.26, K 5.08, A 4.75
Y12: C 3.36, S 4, A 3.94, P 4.05, V 4.09, I 2.95, T 3.89, D 4.55, K 3.97, W 3.1, M 3.5, Q 3.84, E 4.24, H 3.81, F 3.69, N 3.78, G 3.76, L 3.67, R 3.72
Y21: V 3.57, W 3.5, R 3.24, I 2.87, Q 3.02, D 4, T 3.93, K 2.89, A 3.79, C 3.57, L 3.1, F 1.83, G 3.14, P 3.21, S 3.61, N 3.67, E 3.66, H 2.96, M 3.82
T16: C 3.58, H 3.26

Source: the supplement of paper PMC10567573
